Tests used:
[1] = test system: HeLa Kyoto; experiment: thermal stability score vs G1/S (z-score of summed log2 fold changes over temperatures); higher = more thermally stable than in G1/S
[2] = test system: HeLa Kyoto; experiment: solubility in G1/S (NP-40 vs SDS abundance) (log2 ratio); higher = more soluble; conditions: cell cycle stage: G1/S
[3] = test system: HeLa Kyoto; experiment: melting temperature (median over replicates), in situ; higher = more thermally stable
[4] = test system: HeLa Kyoto; experiment: solubility change mitosis vs G1/S (difference of NP-40 vs SDS log2 ratios) (log2 ratio difference); higher = more soluble in mitosis
[5] = cell cycle stage: early G1 (4.5 h after nocodazole release)
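Wherever melting temperature (median over replicates), in situ is given: HeLa Kyoto cells synchronized by double thymidine or nocodazole block, proteins quantified by TMT10plex mass spectrometry, three independent biological replicates.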
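Wherever solubility change mitosis vs G1/S (difference of NP-40 vs SDS log2 ratios) is given: synchronized HeLa Kyoto cells (double thymidine block for G1/S, nocodazole release for mitosis), protein amounts in NP-40 versus SDS lysates quantified by mass spectrometry, three biological replicates.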
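Wherever solubility in G1/S (NP-40 vs SDS abundance) is given: HeLa Kyoto cells arrested at G1/S by double thymidine block, proteins quantified by TMT10plex mass spectrometry in mild NP-40 versus SDS extracts, three biological replicates.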
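Wherever thermal stability score vs G1/S (z-score of summed log2 fold changes over temperatures) is given: synchronized HeLa Kyoto cells, proteins quantified by TMT10plex mass spectrometry, three biological replicates, mitosis taken 0.5 h after nocodazole release, G1/S directly after double thymidine block.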

Row | Sequence | thermal stability score [1, 5] | thermal stability score ([1]; cell cycle stage: mitosis) | solubility in G1/S (log2) [2] | melting temperature ([3]; cell cycle stage: G1/S) [°C] | melting temperature ([3]; cell cycle stage: mitosis) [°C] | solubility change mitosis (log2) [4]
1 | MSRGGSYPHLLWDVRKRSLGLEDPSRLRSRYLGRREFIQRLKLEATLNVHDGCVNTICWNDTGEYILSGSDDTKLVISNPYSRKVLTTIRSGHRANIFSAKFLPCTNDKQIVSCSGDGVIFYTNVEQDAETNRQCQFTCHYGTTYEIMTVPNDPYTFLSCGEDGTVRWFDTRIKTSCTKEDCKDDILINCRRAATSVAICPPIPYYLAVGCSDSSVRIYDRRMLGTRATGNYAGRGTTGMVARFIPSHLNNKSCRVTSLCYSEDGQEILVSYSSDYIYLFDPKDDTARELKTPSAEERREELRQPPVKRLRLRGDWSDTGPRARPESERERDGEQSPNVSLMQRMSDMLSRWFEEASEVAQSNRGRGRSRPRGGTSQSDISTLPTVPSSPDLEVSETAMEVDTPAEQFLQPSTSSTMSAQAHSTSSPTESPHSTPLLSSPDSEQRQSVEASGHHTHHQSDNNNEKLSPKPGTGEPVLSLHYSTEGTTTSTIKLNFTDEWSSIASSSRGIGSHCKSEGQEESFVPQSSVQPPEGDSETKAPEESSEDVTKYQEGVSAENPVENHINITQSDKFTAKPLDSNSGERNDLNLDRSCGVPEESASSEKAKEPETSDQTSTESATNENNTNPEPQFQTEATGPSAHEETSTRDSALQDTDDSDDDPVLIPGARYRAGPGDRRSAVARIQEFFRRRKERKEMEELDTLNIRRPLVKMVYKGHRNSRTMIKEANFWGANFVMSGSDCGHIFIWDRHTAEHLMLLEADNHVVNCLQPHPFDPILASSGIDYDIKIWSPLEESRIFNRKLADEVITRNELMLEETRNTITVPASFMLRMLASLNHIRADRLEGDRSEGSGQENENEDEE [DCAF6] | -1.47 | -2.02 | -0.176 | 54.7 | 54.9 | 0.0043
2 | MSRHEGVSCDACLKGNFRGRRYKCLICYDYDLCASCYESGATTTRHTTDHPMQCILTRVDFDLYYGGEAFSVEQPQSFTCPYCGKMGYTETSLQEHVTSEHAETSTEVICPICAALPGGDPNHVTDDFAAHLTLEHRAPRDLDESSGVRHVRRMFHPGRGLGGPRARRSNMHFTSSSTGGLSSSQSSYSPSNREAMDPIAELLSQLSGVRRSAGGQLNSSGPSASQLQQLQMQLQLERQHAQAARQQLETARNATRRTNTSSVTTTITQSTATTNIANTESSQQTLQNSQFLLTRLNDPKMSETERQSMESERADRSLFVQELLLSTLVREESSSSDEDDRGEMADFGAMGCVDIMPLDVALENLNLKESNKGNEPPPPPL [KCMF1] | -1.31 | -1.41 | -0.415 | 51.7 |  | 0.00437
3 | MSRLRALLGLGLLVAGSRVPRIKSQTIACRSGPTWWGPQRLNSGGRWDSEVMASTVVKYLSQEEAQAVDQELFNEYQFSVDQLMELAGLSCATAIAKAYPPTSMSRSPPTVLVICGPGNNGGDGLVCARHLKLFGYEPTIYYPKRPNKPLFTALVTQCQKMDIPFLGEMPAEPMTIDELYELVVDAIFGFSFKGDVREPFHSILSVLKGLTVPIASIDIPSGWDVEKGNAGGIQPDLLISLTAPKKSATQFTGRYHYLGGRFVPPALEKKYQLNLPPYPDTECVYRLQ [APOA1BP] | -2.06 | -3.77 | 0.462 | 56.4 | 55.3 | 0.417
4 | MSRRALRRLRGEQRGQEPLGPGALHFDLRDDDDAEEEGPKRELGVRRPGGAGKEGVRVNNRFELINIDDLEDDPVVNGERSGCALTDAVAPGNKGRGQRGNTESKTDGDDTETVPSEQSHASGKLRKKKKKQKNKKSSTGEASENGLEDIDRILERIEDSTGLNRPGPAPLSSRKHVLYVEHRHLNPDTELKRYFGARAILGEQRPRQRQRVYPKCTWLTTPKSTWPRYSKPGLSMRLLESKKGLSFFAFEHSEEYQQAQHKFLVAVESMEPNNIVVLLQTSPYHVDSLLQLSDACRFQEDQEMARDLVERALYSMECAFHPLFSLTSGACRLDYRRPENRSFYLALYKQMSFLEKRGCPRTALEYCKLILSLEPDEDPLCMLLLIDHLALRARNYEYLIRLFQEWEAHRNLSQLPNFAFSVPLAYFLLSQQTDLPECEQSSARQKASLLIQQALTMFPGVLLPLLESCSVRPDASVSSHRFFGPNAEISQPPALSQLVNLYLGRSHFLWKEPATMSWLEENVHEVLQAVDAGDPAVEACENRRKVLYQRAPRNIHRHVILSEIKEAVAALPPDVTTQSVMGFDPLPPSDTIYSYVRPERLSPISHGNTIALFFRSLLPNYTMEGERPEEGVAGGLNRNQGLNRLMLAVRDMMANFHLNDLEAPHEDDAEGEGEWD [TCF25] | 0.666 | 0.63 | 0.0319 | 49.4 | 48.4 | 0.0389
5 | MSSARFDSSDRSAWYMGPVSRQEAQTRLQGQRHGMFLVRDSSTCPGDYVLSVSENSRVSHYIINSLPNRRFKIGDQEFDHLPALLEFYKIHYLDTTTLIEPAPRYPSPPMGSVSAPNLPTAEDNLEYVRTLYDFPGNDAEDLPFKKGEILVIIEKPEEQWWSARNKDGRVGMIPVPYVEKLVRSSPHGKHGNRNSNSYGIPEPAHAYAQPQTTTPLPAVSGSPGAAITPLPSTQNGPVFAKAIQKRVPCAYDKTALALEVGDIVKVTRMNINGQWEGEVNGRKGLFPFTHVKIFDPQNPDENE [CRKL] | -0.327 | -0.418 | 0.543 | 53 | 53.4 | 0.0605
6 | MSSEEGKLFVGGLNFNTDEQALEDHFSSFGPISEVVVVKDRETQRSRGFGFITFTNPEHASVAMRAMNGESLDGRQIRVDHAGKSARGTRGGGFGAHGRGRSYSRGGGDQGYGSGRYYDSRPGGYGYGYGRSRDYNGRNQGGYDRYSGGNYRDNYDN [RBM3] | -2.01 | -4.74 | 0.11 | 54.2 | 52.7 | 0.436
7 | MSSEPPPPPQPPTHQASVGLLDTPRSRERSPSPLRGNVVPSPLPTRRTRTFSATVRASQGPVYKGVCKCFCRSKGHGFITPADGGPDIFLHISDVEGEYVPVEGDEVTYKMCSIPPKNEKLQAVEVVITHLAPGTKHETWSGHVISS [CARHSP1] | -0.479 | -0.699 | 0.691 | 54.7 | 55.2 | 0.089
8 | MSSLAVRDPAMDRSLRSVFVGNIPYEATEEQLKDIFSEVGSVVSFRLVYDRETGKPKGYGFCEYQDQETALSAMRNLNGREFSGRALRVDNAASEKNKEELKSLGPAAPIIDSPYGDPIDPEDAPESITRAVASLPPEQMFELMKQMKLCVQNSHQEARNMLLQNPQLAYALLQAQVVMRIMDPEIALKILHRKIHVTPLIPGKSQSVSVSGPGPGPGPGLCPGPNVLLNQQNPPAPQPQHLARRPVKDIPPLMQTPIQGGIPAPGPIPAAVPGAGPGSLTPGGAMQPQLGMPGVGPVPLERGQVQMSDPRAPIPRGPVTPGGLPPRGLLGDAPNDPRGGTLLSVTGEVEPRGYLGPPHQGPPMHHASGHDTRGPSSHEMRGGPLGDPRLLIGEPRGPMIDQRGLPMDGRGGRDSRAMETRAMETEVLETRVMERRGMETCAMETRGMEARGMDARGLEMRGPVPSSRGPMTGGIQGPGPINIGAGGPPQGPRQVPGISGVGNPGAGMQGTGIQGTGMQGAGIQGGGMQGAGIQGVSIQGGGIQGGGIQGASKQGGSQPSSFSPGQSQVTPQDQEKAALIMQVLQLTADQIAMLPPEQRQSILILKEQIQKSTGAS [CSTF2T] | -0.131 | 0.0128 | -0.00517 | 52.6 | 51.9 | 0.114
9 | MSSNCTSTTAVAVAPLSASKTKTKKKHFVCQKVKLFRASEPILSVLMWGVNHTINELSNVPVPVMLMPDDFKAYSKIKVDNHLFNKENLPSRFKFKEYCPMVFRNLRERFGIDDQDYQNSVTRSAPINSDSQGRCGTRFLTTYDRRFVIKTVSSEDVAEMHNILKKYHQFIVECHGNTLLPQFLGMYRLTVDGVETYMVVTRNVFSHRLTVHRKYDLKGSTVAREASDKEKAKDLPTFKDNDFLNEGQKLHVGEESKKNFLEKLKRDVEFLAQLKIMDYSLLVGIHDVDRAEQEEMEVEERAEDEECENDGVGGNLLCSYGTPPDSPGNLLSFPRFFGPGEFDPSVDVYAMKSHESSPKKEVYFMAIIDILTPYDTKKKAAHAAKTVKHGAGAEISTVNPEQYSKRFNEFMSNILT [PIP4K2B] | 0.758 | -0.395 | 0.335 | 50.1 | 49 | -0.163
10 | MSSPSPGKRRMDTDVVKLIESKHEVTILGGLNEFVVKFYGPQGTPYEGGVWKVRVDLPDKYPFKSPSIGFMNKIFHPNIDEASGTVCLDVINQTWTALYDLTNIFESFLPQLLAYPNPIDPLNGDAAAMYLHRPEEYKQKIKEYIQKYATEEALKEQEEGTGDSSSESSMSDFSEDEAQDMEL [UBE2H] | 0.268 | 0.877 | -0.0237 | 52 | 52.4 | -0.126
11 | MSSQSHPDGLSGRDQPVELLNPARVNHMPSTVDVATALPLQVAPSAVPMDLRLDHQFSLPVAEPALREQQLQQELLALKQKQQIQRQILIAEFQRQHEQLSRQHEAQLHEHIKQQQEMLAMKHQQELLEHQRKLERHRQEQELEKQHREQKLQQLKNKEKGKESAVASTEVKMKLQEFVLNKKKALAHRNLNHCISSDPRYWYGKTQHSSLDQSSPPQSGVSTSYNHPVLGMYDAKDDFPLRKTASEPNLKLRSRLKQKVAERRSSPLLRRKDGPVVTALKKRPLDVTDSACSSAPGSGPSSPNNSSGSVSAENGIAPAVPSIPAETSLAHRLVAREGSAAPLPLYTSPSLPNITLGLPATGPSAGTAGQQDAERLTLPALQQRLSLFPGTHLTPYLSTSPLERDGGAAHSPLLQHMVLLEQPPAQAPLVTGLGALPLHAQSLVGADRVSPSIHKLRQHRPLGRTQSAPLPQNAQALQHLVIQQQHQQFLEKHKQQFQQQQLQMNKIIPKPSEPARQPESHPEETEEELREHQALLDEPYLDRLPGQKEAHAQAGVQVKQEPIESDEEEAEPPREVEPGQRQPSEQELLFRQQALLLEQQRIHQLRNYQASMEAAGIPVSFGGHRPLSRAQSSPASATFPVSVQEPPTKPRFTTGLVYDTLMLKHQCTCGSSSSHPEHAGRIQSIWSRLQETGLRGKCECIRGRKATLEELQTVHSEAHTLLYGTNPLNRQKLDSKKLLGSLASVFVRLPCGGVGVDSDTIWNEVHSAGAARLAVGCVVELVFKVATGELKNGFAVVRPPGHHAEESTPMGFCYFNSVAVAAKLLQQRLSVSKILIVDWDVHHGNGTQQAFYSDPSVLYMSLHRYDDGNFFPGSGAPDEVGTGPGVGFNVNMAFTGGLDPPMGDAEYLAAFRTVVMPIASEFAPDVVLVSSGFDAVEGHPTPLGGYNLSARCFGYLTKQLMGLAGGRIVLALEGGHDLTAICDASEACVSALLGNELDPLPEKVLQQRPNANAVRSMEKVMEIHSKYWRCLQRTTSTAGRSLIEAQTCENEEAETVTAMASLSVGVKPAEKRPDEEPMEEEPPL [HDAC4] | -0.241 | 0.236 | 0.188 | 53.3 | 52.9 | -0.072
12 | MSSSLGKEKDSKEKDPKVPSAKEREKEAKASGGFGKESKEKEPKTKGKDAKDGKKDSSAAQPGVAFSVDNTIKRPNPAPGTRKKSSNAEVIKELNKCREENSMRLDLSKRSIHILPSSIKELTQLTELYLYSNKLQSLPAEVGCLVNLMTLALSENSLTSLPDSLDNLKKLRMLDLRHNKLREIPSVVYRLDSLTTLYLRFNRITTVEKDIKNLSKLSMLSIRENKIKQLPAEIGELCNLITLDVAHNQLEHLPKEIGNCTQITNLDLQHNELLDLPDTIGNLSSLSRLGLRYNRLSAIPRSLAKCSALEELNLENNNISTLPESLLSSLVKLNSLTLARNCFQLYPVGGPSQFSTIYSLNMEHNRINKIPFGIFSRAKVLSKLNMKDNQLTSLPLDFGTWTSMVELNLATNQLTKIPEDVSGLVSLEVLILSNNLLKKLPHGLGNLRKLRELDLEENKLESLPNEIAYLKDLQKLVLTNNQLTTLPRGIGHLTNLTHLGLGENLLTHLPEEIGTLENLEELYLNDNPNLHSLPFELALCSKLSIMSIENCPLSHLPPQIVAGGPSFIIQFLKMQGPYRAMV [SHOC2] | -0.46 | -1.35 | 0.421 | 52.2 | 52.4 | -0.0856
